Measured values from patent publication US20110123532A1 (ONCOMED PHARMACEUTICALS, published 2011).

Experiments:
[1] = molecular target: T1, human VEGF (human, UniProt P15692-4 27-191); assay: SPR (Biacore), VEGF surface; reference 219R0302 IgG
T1 construct: Immobilised on a CM5 chip for Biacore; the same name is used for the rhVEGF of the HUVEC assay; also called hVEGF; rhVEGF

[2] = molecular target: T1, human VEGF; assay: SPR (Biacore), VEGF surface

T1 sequence (P15692 other isoform, or with tags, fused parts or gaps limits assumed): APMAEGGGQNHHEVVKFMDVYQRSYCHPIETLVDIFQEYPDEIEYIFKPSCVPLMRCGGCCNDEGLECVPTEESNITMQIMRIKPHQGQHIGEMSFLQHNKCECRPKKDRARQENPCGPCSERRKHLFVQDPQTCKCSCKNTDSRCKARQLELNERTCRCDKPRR

B1: 219R0302-21M18 single gene bispecific antibody (SGBSP) (bispecific antibody, human IgG2, kappa)
chain 1: not shown
chain 2: DIVMTQSPDSLAVSLGERATISCRASESVDNYGISFMKWFQQKPGQPPKLLIYAASNQGSGVPDRFSGSGSGTDFTLTISSLQAEDVAVYYCQQSKEVPWTFGGGTKVEIKRTVAAPSVFIFPPSDEQLKSGTASVVCLLNNFYPREAKVQWKVDNALQSGNSQESVTEQDSKDSTYSLSSTLTLSKADYEKHKVYACEVTHQGLSSPVTKSFNRGECGGGGSGGGGSGGGGSGGGGSGGGGSGGGGSQVQLVQSGAEVKKPGASVKISCKASGYSFTAYYIHWVKQAPGQGLEWIGYISSYNGATNYNQKFKGRVTFTTDTSTSTAYMELRSLRSDDTAVYYCARDYDYDVGMDYWGQGTLVTVSSASTKGPSVFPLAPCSRSTSESTAALGCLVKDYFPEPVTVSWNSGALTSGVHTFPAVLQSSGLYSLSSVVTVPSSNFGTQTYTCNVDHKPSNTKVDKTVERKCCVECPPCPAPPVAGPSVFLFPPKPKDTLMISRTPEVTCVVVDVSHEDPEVQFNWYVDGVEVHNAKTKPREEQFNSTFRVVSVLTVVHQDWLNGKEYKCKVSNKGLPAPIEKTISKTKGQPREPQVYTLPPSREEMTKNQVSLTCLVEGFYPSDIAVEWESNGQPENNYKTTPPMLDSDGSFFLYSELTVDKSRWQQGNVFSCSVMHEALHNHYTQKSLSLSPGK
notes: Heterodimer of two single-gene chains, anti-VEGF arm (13A) and anti-DLL4 arm (13B), IgG2; also called 219R0302_21M18 SGBSP; 219R0302-21M18 SGBSP
- fold weaker binding affinity than 219R0302 [1]: ~4 fold
- Kd [2]: 7.6 nM
